Test results reported in US20200283521A1 (GRANULAR THERAPEUTICS, published 2020).

How the values were obtained:
human C-KIT-Fc [1] = molecular target: T1, human C-KIT-Fc (human, UniProt P10721 26-524); test: HTRF competition vs Tb-h37M IgG1
T1 construct: also called biotinylated human C-KIT-Fc; not shown: Fc part not described

[2] = molecular target: T2, cynomolgus monkey C-KIT-Fc (cynomolgus monkey); test: HTRF competition vs Tb-h37M IgG1
T2 construct: also called cyno C-KIT-Fc

hEpCAM-Fc = molecular target: T3, hEpCAM-Fc (human, UniProt P16422); test: direct ELISA on coated protein, IgG1
T3 construct: Fc fusion; member of the panel m9
T3 sequence (looked up): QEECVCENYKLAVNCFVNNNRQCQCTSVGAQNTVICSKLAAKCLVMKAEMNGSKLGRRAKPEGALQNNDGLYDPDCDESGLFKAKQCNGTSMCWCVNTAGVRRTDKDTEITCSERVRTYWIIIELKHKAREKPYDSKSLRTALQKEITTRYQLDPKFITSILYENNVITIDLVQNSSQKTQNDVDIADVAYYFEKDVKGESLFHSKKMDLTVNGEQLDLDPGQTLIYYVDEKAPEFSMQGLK

hCMET-Fc = molecular target: T4, hCMET-Fc (The natural ectodomain is cleaved by furin after residue 307 into disulfide-linked alpha and beta chains. It is given here as one continuous stretch.); test: direct ELISA on coated protein, IgG1
T4 construct: member of the panel m9
T4 chain: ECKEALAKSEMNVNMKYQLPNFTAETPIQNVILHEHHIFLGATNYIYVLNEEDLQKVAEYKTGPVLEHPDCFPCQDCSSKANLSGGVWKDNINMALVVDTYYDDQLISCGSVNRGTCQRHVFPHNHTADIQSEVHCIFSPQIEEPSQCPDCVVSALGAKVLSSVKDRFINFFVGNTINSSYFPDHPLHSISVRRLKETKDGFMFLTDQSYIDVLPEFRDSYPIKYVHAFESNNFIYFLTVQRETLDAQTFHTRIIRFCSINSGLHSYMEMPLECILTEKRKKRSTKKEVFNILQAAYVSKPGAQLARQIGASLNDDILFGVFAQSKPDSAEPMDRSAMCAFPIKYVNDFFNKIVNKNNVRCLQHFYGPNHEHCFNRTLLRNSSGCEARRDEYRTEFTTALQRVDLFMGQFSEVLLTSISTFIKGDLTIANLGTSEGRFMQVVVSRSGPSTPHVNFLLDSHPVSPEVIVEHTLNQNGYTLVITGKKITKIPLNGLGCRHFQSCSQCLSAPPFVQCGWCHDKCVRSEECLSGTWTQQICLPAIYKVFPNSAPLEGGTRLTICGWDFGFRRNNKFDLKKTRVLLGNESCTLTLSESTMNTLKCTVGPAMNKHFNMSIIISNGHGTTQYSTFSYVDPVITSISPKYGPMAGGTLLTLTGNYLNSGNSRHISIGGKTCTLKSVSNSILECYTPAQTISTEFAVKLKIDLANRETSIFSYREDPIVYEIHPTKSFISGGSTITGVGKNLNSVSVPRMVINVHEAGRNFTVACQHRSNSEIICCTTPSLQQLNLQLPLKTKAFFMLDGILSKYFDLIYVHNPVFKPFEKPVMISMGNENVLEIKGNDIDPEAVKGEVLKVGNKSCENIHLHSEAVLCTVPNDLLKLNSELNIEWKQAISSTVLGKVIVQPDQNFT

hICAM-1-Fc = molecular target: T5, hICAM-1-Fc (human, UniProt P05362); test: direct ELISA on coated protein, IgG1
T5 construct: Fc fusion; member of the panel m9

hDR3-Fc = molecular target: T6, hDR3-Fc (human, UniProt Q93038); test: direct ELISA on coated protein, IgG1
T6 construct: Fc fusion; member of the panel m9
T6 sequence (looked up): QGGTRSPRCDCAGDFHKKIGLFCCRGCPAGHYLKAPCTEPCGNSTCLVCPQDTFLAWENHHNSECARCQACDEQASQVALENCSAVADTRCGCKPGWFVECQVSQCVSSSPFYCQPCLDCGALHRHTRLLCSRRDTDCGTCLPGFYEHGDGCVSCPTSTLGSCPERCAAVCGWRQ

hCD4 = molecular target: T7, hCD4 (human, UniProt P01730); test: direct ELISA on coated protein, IgG1
T7 construct: purified recombinant protein; member of the panel m9

hDR6-Fc = molecular target: T8, hDR6-Fc (human, UniProt O75509); test: direct ELISA on coated protein, IgG1
T8 construct: Fc fusion; member of the panel m9
T8 sequence (looked up): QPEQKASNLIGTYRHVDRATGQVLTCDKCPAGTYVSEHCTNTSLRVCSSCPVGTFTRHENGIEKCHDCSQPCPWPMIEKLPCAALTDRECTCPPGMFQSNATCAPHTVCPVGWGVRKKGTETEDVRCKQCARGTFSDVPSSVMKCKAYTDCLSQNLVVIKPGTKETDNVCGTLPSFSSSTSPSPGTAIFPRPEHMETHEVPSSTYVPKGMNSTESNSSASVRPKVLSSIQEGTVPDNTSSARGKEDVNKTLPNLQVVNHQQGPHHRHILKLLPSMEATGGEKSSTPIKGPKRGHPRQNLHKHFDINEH

hBAFFR-Fc = molecular target: T9, hBAFFR-Fc (human, UniProt Q96RJ3); test: direct ELISA on coated protein, IgG1
T9 construct: Fc fusion; member of the panel m9

hVCAM-Fc = molecular target: T10, hVCAM-Fc; test: direct ELISA on coated protein, IgG1
T10 construct: member of the panel m9
T10 chain: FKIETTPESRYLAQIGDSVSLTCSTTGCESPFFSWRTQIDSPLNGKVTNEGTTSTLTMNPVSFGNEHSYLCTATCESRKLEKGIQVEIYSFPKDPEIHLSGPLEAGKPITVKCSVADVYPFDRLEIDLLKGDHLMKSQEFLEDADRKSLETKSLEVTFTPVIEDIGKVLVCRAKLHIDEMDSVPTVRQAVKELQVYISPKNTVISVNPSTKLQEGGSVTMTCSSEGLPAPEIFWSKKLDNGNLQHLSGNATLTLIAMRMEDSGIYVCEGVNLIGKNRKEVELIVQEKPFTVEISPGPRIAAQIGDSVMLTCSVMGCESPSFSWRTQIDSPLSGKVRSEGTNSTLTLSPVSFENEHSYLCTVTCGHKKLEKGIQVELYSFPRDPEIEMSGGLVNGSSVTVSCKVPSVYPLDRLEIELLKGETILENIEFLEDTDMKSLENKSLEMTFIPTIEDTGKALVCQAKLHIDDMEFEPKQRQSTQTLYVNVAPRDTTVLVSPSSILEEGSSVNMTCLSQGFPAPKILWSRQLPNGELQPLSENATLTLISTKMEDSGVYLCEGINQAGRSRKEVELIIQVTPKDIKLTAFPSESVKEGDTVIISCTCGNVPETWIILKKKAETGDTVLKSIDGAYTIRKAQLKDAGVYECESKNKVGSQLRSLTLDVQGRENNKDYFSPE

hVCAM-1 = molecular target: T11, hVCAM-1 (human, UniProt P19320); test: direct ELISA on coated protein, IgG1
T11 construct: purified recombinant protein; member of the panel m9
T11 sequence (looked up): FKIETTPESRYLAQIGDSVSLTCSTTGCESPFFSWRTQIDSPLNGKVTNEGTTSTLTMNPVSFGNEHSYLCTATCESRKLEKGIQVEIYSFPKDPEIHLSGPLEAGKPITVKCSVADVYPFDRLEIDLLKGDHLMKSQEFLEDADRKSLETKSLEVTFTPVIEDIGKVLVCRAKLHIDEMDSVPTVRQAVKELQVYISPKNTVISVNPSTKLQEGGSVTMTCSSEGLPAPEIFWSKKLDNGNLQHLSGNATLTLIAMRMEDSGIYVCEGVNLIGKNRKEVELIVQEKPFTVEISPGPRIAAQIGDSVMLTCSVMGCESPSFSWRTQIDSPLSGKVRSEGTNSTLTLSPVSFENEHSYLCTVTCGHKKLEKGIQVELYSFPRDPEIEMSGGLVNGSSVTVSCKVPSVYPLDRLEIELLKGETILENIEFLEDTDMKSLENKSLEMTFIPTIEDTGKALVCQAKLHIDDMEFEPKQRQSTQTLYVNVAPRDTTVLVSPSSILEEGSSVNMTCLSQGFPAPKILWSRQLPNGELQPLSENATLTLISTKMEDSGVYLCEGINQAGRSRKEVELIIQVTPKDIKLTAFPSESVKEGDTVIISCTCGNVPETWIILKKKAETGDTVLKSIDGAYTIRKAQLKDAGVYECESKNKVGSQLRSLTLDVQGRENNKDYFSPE

hTWEAK-Fc = molecular target: T12, hTWEAK-Fc (human, UniProt O43508); test: direct ELISA on coated protein, IgG1
T12 construct: Fc fusion; member of the panel m9
T12 sequence (looked up): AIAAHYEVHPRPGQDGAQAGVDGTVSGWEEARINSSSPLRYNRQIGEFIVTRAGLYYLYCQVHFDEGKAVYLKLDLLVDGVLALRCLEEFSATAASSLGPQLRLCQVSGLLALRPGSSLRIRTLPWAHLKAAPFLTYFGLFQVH

hOX40-Fc = molecular target: T13, hOX40-Fc; test: direct ELISA on coated protein, IgG1
T13 construct: member of the panel m9
T13 chain: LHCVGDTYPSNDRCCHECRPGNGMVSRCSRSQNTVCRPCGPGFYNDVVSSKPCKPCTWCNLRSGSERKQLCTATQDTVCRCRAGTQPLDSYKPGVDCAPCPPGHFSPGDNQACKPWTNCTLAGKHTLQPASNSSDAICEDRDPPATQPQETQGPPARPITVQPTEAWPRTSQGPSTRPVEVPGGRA

h4-1BB-Fc = molecular target: T14, h4-1BB-Fc; test: direct ELISA on coated protein, IgG1
T14 construct: member of the panel m9

hLTBR-Fc = molecular target: T15, hLTBR-Fc (human, UniProt P36941); test: direct ELISA on coated protein, IgG1
T15 construct: Fc fusion; member of the panel m9

human C-KIT-Fc [3] = molecular target: T1, human C-KIT-Fc; test: direct ELISA at 1 µg/ml
[4] = molecular target: T2, cynomolgus monkey C-KIT-Fc; test: direct ELISA at 1 µg/ml

T5 sequence (P05362 28-480 limits assumed): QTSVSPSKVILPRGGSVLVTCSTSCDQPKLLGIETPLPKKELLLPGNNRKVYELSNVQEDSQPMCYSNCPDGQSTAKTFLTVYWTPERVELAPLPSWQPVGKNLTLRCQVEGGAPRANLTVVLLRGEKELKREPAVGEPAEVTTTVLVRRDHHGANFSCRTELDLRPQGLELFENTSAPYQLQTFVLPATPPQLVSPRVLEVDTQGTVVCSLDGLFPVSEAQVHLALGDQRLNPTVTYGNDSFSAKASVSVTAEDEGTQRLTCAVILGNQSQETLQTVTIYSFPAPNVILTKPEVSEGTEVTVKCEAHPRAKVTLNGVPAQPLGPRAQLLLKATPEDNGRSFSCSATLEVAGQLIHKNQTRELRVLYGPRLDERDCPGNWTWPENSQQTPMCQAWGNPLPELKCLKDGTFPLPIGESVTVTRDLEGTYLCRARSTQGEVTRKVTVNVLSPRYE
T9 sequence (Q96RJ3 7-71 limits assumed): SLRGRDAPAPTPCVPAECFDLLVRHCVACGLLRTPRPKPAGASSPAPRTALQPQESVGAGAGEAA
T15 sequence (P36941 28-227 limits assumed): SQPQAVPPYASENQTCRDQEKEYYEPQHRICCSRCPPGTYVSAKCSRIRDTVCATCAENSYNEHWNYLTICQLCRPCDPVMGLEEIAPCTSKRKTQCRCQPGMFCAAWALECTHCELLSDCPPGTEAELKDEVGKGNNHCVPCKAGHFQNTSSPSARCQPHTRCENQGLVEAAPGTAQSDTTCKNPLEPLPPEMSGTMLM
T14 sequence (chain, as listed by the source limits assumed): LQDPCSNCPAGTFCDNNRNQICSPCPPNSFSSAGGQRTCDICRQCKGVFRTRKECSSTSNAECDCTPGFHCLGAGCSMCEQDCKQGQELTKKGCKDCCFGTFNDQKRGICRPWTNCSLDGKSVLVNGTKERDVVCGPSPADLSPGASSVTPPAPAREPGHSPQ

IC50 (human C-KIT-Fc [1]): 0.028 µg/mL | IC50 [2]: 0.051 µg/mL | binding result (hEpCAM-Fc): no binding (tested: 1 µg/ml) | binding result (hCMET-Fc): no binding (tested: 1 µg/ml) | binding result (hICAM-1-Fc): no binding (tested: 1 µg/ml) | binding result (hDR3-Fc): no binding (tested: 1 µg/ml) | binding result (hCD4): no binding (tested: 1 µg/ml) | binding result (hDR6-Fc): no binding (tested: 1 µg/ml) | binding result (hBAFFR-Fc): no binding (tested: 1 µg/ml) | binding result (hVCAM-Fc): no binding (tested: 1 µg/ml) | binding result (hVCAM-1): no binding (tested: 1 µg/ml) | binding result (hTWEAK-Fc): no binding (tested: 1 µg/ml) | binding result (hOX40-Fc): no binding (tested: 1 µg/ml) | binding result (h4-1BB-Fc): no binding (tested: 1 µg/ml) | binding result (hLTBR-Fc): no binding (tested: 1 µg/ml) | OD450 nm (human C-KIT-Fc [3]): > 1.8 OD450 nm | OD450 nm [4]: > 2 OD450 nm
B1: E-C7 (antibody, IgG1, V domains shown)
VH: QVQLVQSGAEVKKPGASVKVSCKASGYTFTDYYMNWVRQAPGQGLEWMGRIYPGSGNTYYAQKFQGRVTMTRDTSTSTVYMELSSLRSEDTAVYYCARGVYYYDYWGQGTLVTVSS
VL: DIQMTQSPSSLSASVGDRVTITCRASQGIRTNLAWFQQKPGKAPKSLIYSASSLQSGVPSRFSGSGSGTDFTLTISSLQPEDFATYYCQQYNSYPRTFGGGTKVEIK
notes: IgG1; also called C-KIT-E-C7
